This note sets out measurements from PMC8233511.

Holding throughout (test): EMSA
Data set [1] addresses T1, Oct4 POU domain homodimer (UniProt P20263 131-282).
Data set [2] concerns the target Oct4 POU domain;Sox17 HMG domain (mouse?;mouse?, UniProt P20263;Q61473 131-282;68-136, |).
Data set [3] deals with Oct4 POU domain;Sox2 HMG domain (mouse?;mouse?, UniProt P20263;P48432 131-282;43-111, |).
The target of data set [4] is Oct4 POU domain (UniProt P20263 131-282).
Data set [5] has as its target T1, Oct4 POU domain homodimer. The source holds these as a separate data set.

Like-named read-outs stand apart in the source and are kept apart here.

T1 sequence (P20263 131-282): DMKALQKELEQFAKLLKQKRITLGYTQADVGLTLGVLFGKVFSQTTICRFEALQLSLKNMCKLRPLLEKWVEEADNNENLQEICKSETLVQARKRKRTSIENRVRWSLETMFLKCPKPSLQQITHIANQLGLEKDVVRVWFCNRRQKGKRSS
Sequence of Oct4 POU domain;Sox17 HMG domain (P20263 131-282, chain 1 of 2): as the sequence (P20263 131-282) above
Sequence of Oct4 POU domain;Sox17 HMG domain (Q61473 68-136, chain 2 of 2): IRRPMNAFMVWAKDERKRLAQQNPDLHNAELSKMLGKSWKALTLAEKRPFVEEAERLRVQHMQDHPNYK
Sequence of Oct4 POU domain (P20263 131-282): as the sequence (P20263 131-282) above
Sequence of Oct4 POU domain;Sox2 HMG domain (P20263 131-282, chain 1 of 2): as the sequence (P20263 131-282) above
Sequence of Oct4 POU domain;Sox2 HMG domain (P48432 43-111, chain 2 of 2): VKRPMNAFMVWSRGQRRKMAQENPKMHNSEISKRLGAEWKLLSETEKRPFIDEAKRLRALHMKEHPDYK

B1: MOREA4 (dsDNA)
DNA 1: GCCGCCATGAATATTCATGCCGCCGC
DNA 2: GCGGCGGCATGAATATTCATGGCGGC
Regarding B1, in data set [1], the binding result was “binds”.

B2: SoxOct compressed (dsDNA)
DNA 1: GGCGGCATTGTATGCAAATCGGCGG
DNA 2: CCGCCGATTTGCATACAATGCCGCC
Turning to B2, the binding result in data set [2] is recorded as “binds”.

B3: MOREC4 (dsDNA)
DNA 1: GGCCTCATGCATATGCATGCGGCGG
DNA 2: CCGCCGCATGCATATGCATGAGGCC
For B3, the binding result in data set [1] was “binds”.

B4: SoxOct canonical (dsDNA)
DNA 1: GCGGCATTGTCATGCAAATCGGCGG
DNA 2: CCGCCGATTTGCATGACAATGCCGC
On to B4, for which the binding result in data set [3] is listed as “binds”.

B5: Octamer (dsDNA)
DNA 1: GGCGGCGGATGCAAATCGGCGGCGG
DNA 2: CCGCCGCCGATTTGCATCCGCCGCC
With B5, the binding result in data set [4] is “binds”.

B6: MOREA4+1 (dsDNA)
DNA 1: GCCGCCATGAATAATTCATGCCGCCG
DNA 2: CGGCGGCATGAATTATTCATGGCGGC
In the case of B6, the binding result in data set [1] is on record as “binds”.

B7: PORE (dsDNA)
DNA 1: GGATCCATTTGCCTTTCAAATGTGG
DNA 2: CCACATTTGAAAGGCAAATGGATCC
As to B7, in data set [5], the binding result was “binds”.
